Measurements: US20220119534A1 (DRAGONFLY THERAPEUTICS, published 2022)
Changes are numbered by the printed parent chain. Numbers in names are those of the source.

Tests used:
[1] = molecular target: T1, Human CD16a V158 (FcγRIIIa V158) (human, UniProt P08637 17-208, biotinylated (site not stated)); assay: SPR; biotinylated CD16a V158 captured on SA chip, TriNKET as analyte; 1:1 kinetic fit; control sample
T1 construct: V158 is the allele name in mature numbering; also called hCD16aV; hCD16a V158
T1 sequence (P08637 17-208 F176V limits assumed): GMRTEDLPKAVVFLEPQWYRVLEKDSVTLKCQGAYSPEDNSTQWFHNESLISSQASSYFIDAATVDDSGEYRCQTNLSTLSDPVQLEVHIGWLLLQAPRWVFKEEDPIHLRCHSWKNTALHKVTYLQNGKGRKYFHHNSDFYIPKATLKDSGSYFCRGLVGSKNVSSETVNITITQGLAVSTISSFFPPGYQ

[2] = molecular target: T2, mFc-hNKG2D (human, UniProt P26718 73-216); assay: SPR Biacore 8K 37 C; mFc-hNKG2D captured on anti-mFc chip, TriNKET as analyte; 1:1 kinetic fit; control, n=3
T2 construct: extracellular domain; Made in house (Dragonfly Tx); the order of tag and ECD follows the name mFc-hNKG2D; also called mFc-tagged human NKG2D; not shown: mouse Fc tag
T2 sequence (looked up): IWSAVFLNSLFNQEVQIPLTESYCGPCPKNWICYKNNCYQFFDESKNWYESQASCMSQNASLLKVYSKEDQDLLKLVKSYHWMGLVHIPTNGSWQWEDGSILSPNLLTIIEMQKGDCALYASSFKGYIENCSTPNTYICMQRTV

[3] = molecular target: T3, Human CLEC12A-His (human, UniProt Q5QGZ9 65-265); assay: SPR Biacore 8K 37 C; TriNKET captured on anti-hFc chip, hCLEC12A-His as analyte; 1:1 fit; control sample, n=2
T3 construct: Recombinant soluble protein made in house (Dragonfly Tx); The hCLEC12A spot of the HuProt array is written under this molecule as well; also called hCLEC12A-His; hCLEC12A; not shown: His tag
T3 sequence: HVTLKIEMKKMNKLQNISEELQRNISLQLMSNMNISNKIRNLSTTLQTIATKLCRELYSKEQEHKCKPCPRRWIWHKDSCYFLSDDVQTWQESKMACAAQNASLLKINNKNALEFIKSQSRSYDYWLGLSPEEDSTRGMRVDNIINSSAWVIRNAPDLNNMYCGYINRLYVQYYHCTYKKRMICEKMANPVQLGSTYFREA

[4] = molecular target: T3, Human CLEC12A-His; assay: SPR Biacore 8K 37 C; TriNKET captured on anti-hFc chip, hCLEC12A-His as analyte; 1:1 fit; after 2 wks 2-8 C in CST pH 7.0, n=2
[5] = molecular target: T4, human CLEC12A on cells (HL60, PL21, Ba/F3-hCLEC12A) (human, UniProt Q5QGZ9 1-265); assay: flow cytometry, Ba/F3-hCLEC12A cells
T4 construct: Endogenous on the AML lines HL60 and PL21; brought into mouse Ba/F3 cells by retroviral transduction; The cell line stands under assay; also called CLL-1
T4 sequence: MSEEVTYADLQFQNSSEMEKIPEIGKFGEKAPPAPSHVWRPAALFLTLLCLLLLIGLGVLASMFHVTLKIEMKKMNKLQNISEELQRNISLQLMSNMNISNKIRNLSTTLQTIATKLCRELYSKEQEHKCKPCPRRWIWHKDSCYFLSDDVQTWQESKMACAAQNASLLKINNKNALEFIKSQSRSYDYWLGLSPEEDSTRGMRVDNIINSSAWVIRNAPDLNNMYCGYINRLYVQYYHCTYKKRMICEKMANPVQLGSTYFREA

[6] = molecular target: T5, Human CD16a V158 (human, UniProt P08637 17-208, biotinylated); assay: SPR, hCD16a V158 captured, kinetic fit; average for AB0192
T5 construct: Bought recombinant receptor; also called hCD16a (V158); hFcγRIIIa V158
T5 sequence (P08637 17-208 F176V limits assumed): as the sequence (P08637 17-208 F176V limits assumed) above

[7] = molecular target: T6, De-sialylated human CLEC12A (human, UniProt Q5QGZ9 65-265, treated with neuraminidase (terminal sialic acids removed)); assay: SPR, two-state fit
T6 construct: Same recombinant antigen as m2 after neuraminidase; also called De-sialylated CLEC12A
T6 sequence: T3 sequence

[8] = molecular target: T7, mFc-hNKG2D (recombinant mFc-tagged human NKG2D dimer) (human, UniProt P26718 73-216); assay: SPR 37C, steady state fit, average
T7 construct: extracellular domain; Made in house; not shown: mouse Fc tag
T7 sequence (looked up): T2 sequence (looked up)

[9] = molecular target: T7, mFc-hNKG2D (recombinant mFc-tagged …); assay: SPR; after 4 wks 40C in CST pH 7.0
[10] = molecular target: T8, Human CD16a V158 (FcγRIIIa V158) (human, UniProt P08637 17-208, biotinylated); assay: SPR; after 4 wks 40C in CST pH 7.0
T8 construct: Bought recombinant receptor; also called hCD16aV; hFcγRIIIa V158
T8 sequence (P08637 17-208 F176V limits assumed): as the sequence (P08637 17-208 F176V limits assumed) above

[11] = molecular target: T9, Human CLEC12A expressed on cells (Ba/F3-hCLEC12A, PL21, HL60) (human, UniProt Q5QGZ9 1-265); assay: flow cytometry on Ba/F3-hCLEC12A cells
T9 construct: Ba/F3 cells transduced with human CLEC12A; PL21 and HL60 AML lines express it endogenously; also called cell surface expressed CLEC12A
T9 sequence: T4 sequence

[12] = molecular target: T10, recombinant human CD64 (human, UniProt P12314 16-288, biotinylated); assay: SPR 25C, kinetic fit, average
T10 construct: also called hFcγRI; hCD64
T10 sequence (P12314 16-288 limits assumed): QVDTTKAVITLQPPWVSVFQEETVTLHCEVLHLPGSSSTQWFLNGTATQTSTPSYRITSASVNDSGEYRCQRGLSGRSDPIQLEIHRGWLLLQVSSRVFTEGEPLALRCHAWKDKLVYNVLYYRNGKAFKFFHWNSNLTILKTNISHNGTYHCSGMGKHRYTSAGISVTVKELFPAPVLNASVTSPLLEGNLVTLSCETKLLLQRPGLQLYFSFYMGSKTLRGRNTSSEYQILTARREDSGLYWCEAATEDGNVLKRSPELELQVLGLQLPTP

[13] = molecular target: T11, recombinant human CLEC12A-His (human, UniProt Q5QGZ9 65-265); assay: SPR, CLEC12A binding
T11 construct: also called hCLEC12A-His; hCLEC12A
T11 sequence: T3 sequence

[14] = molecular target: T12, recombinant cynomolgus FcRn (cynomolgus monkey, UniProt Q8SPV9 24-297; Q8SPW0 21-119); assay: SPR 25C, pH 6.0, steady state; pH 6.0; third replicate
T12 construct: also called cFcRn; cyno FcRn
T12 sequence (Q8SPV9 24-297 limits assumed, chain 1 of 2): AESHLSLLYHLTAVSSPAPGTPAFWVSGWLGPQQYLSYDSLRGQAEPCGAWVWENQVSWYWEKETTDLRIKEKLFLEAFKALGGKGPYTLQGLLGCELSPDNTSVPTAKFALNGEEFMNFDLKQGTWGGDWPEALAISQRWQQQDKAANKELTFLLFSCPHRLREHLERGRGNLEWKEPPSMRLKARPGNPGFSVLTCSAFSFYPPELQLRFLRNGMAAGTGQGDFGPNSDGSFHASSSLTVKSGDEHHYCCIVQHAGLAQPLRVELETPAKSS
T12 sequence (Q8SPW0 21-119 limits assumed, chain 2 of 2): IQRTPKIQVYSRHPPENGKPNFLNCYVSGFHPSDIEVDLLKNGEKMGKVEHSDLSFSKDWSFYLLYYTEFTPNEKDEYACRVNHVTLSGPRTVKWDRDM

B1: F3'-1602 TriNKET (bispecific antibody, human IgG1, kappa)
chain: QLQLQESGPGLVKPSETLSLTCTVSGFSLTNYGLHWIRQPPGKCLEWIGVIWSGGKTDYNPSLKSRVTISKDTSKNQFSLKLSSVQAADTAVYYCAKYDYDDSLDYWGQGTLVTVSSGGGGSGGGGSGGGGSGGGGSDIQMTQSPSSLSASVGDRVTITCHASQNINFWLSWYQQKPGKAPKLLIYEASNLHTGVPSRFSGSGSGTRFTLTISSLQPEDIATYYCQQSHSYPLTFGCGTKLEIKGSDKTHTCPPCPAPELLGGPSVFLFPPKPKDTLMISRTPEVTCVVVDVSHEDPEVKFNWYVDGVEVHNAKTKPREEQYNSTYRVVSVLTVLHQDWLNGKEYKCKVSNKALPAPIEKTISKAKGQPREPRVYTLPPCRDELTKNQVSLTCLVKGFYPSDIAVEWESNGQPENNYKTTPPVLVSDGSFTLYSKLTVDKSRWQQGNVFSCSVMHEALHNHYTQKSLSLSPG
heavy: EVQLVESGGGLVKPGGSLRLSCAASGFTFSSYSMNWVRQAPGKGLEWVSSISSSSSYIYYADSVKGRFTISRDNAKNSLYLQMNSLRAEDTAVYYCARGAPIGAAAGWFDPWGQGTLVTVSSASTKGPSVFPLAPSSKSTSGGTAALGCLVKDYFPEPVTVSWNSGALTSGVHTFPAVLQSSGLYSLSSVVTVPSSSLGTQTYICNVNHKPSNTKVDKKVEPKSCDKTHTCPPCPAPELLGGPSVFLFPPKPKDTLMISRTPEVTCVVVDVSHEDPEVKFNWYVDGVEVHNAKTKPREEQYNSTYRVVSVLTVLHQDWLNGKEYKCKVSNKALPAPIEKTISKAKGQPREPQVCTLPPSRDELTENQVSLTCLVKGFYPSDIAVEWESNGQPENNYKTTPPVLDSDGSFFLYSWLTVDKSRWQQGNVFSCSVMHEALHNHYTQKSLSLSPG
light: DIQMTQSPSSVSASVGDRVTITCRASQGISSWLAWYQQKPGKAPKLLIYAASSLQSGVPSRFSGSGSGTDFTLTISSLQPEDFATYYCQQGVSFPRTFGGGTKVEIKRTVAAPSVFIFPPSDEQLKSGTASVVCLLNNFYPREAKVQWKVDNALQSGNSQESVTEQDSKDSTYSLSSTLTLSKADYEKHKVYACEVTHQGLSSPVTKSFNRGEC
notes: Trispecific F3' format: CLEC12A scFv-Fc paired with NKG2D Fab-Fc; Stressed and control samples of the stability studies are the same molecule; also called AB0237
- Kd [1]: 212 nM
- koff [1]: 0.024 s⁻¹
- kon [1]: 113000 M⁻¹ s⁻¹
- Kd [2]: 714 nM
- koff [2]: 0.146 s⁻¹
- kon [2]: 206000 M⁻¹ s⁻¹
- Kd [3]: 1.11 nM
- koff [3]: 0.000873 s⁻¹
- kon [3]: 791000 M⁻¹ s⁻¹
- Kd [4]: 0.89 nM
- koff [4]: 0.0006 s⁻¹
- kon [4]: 672000 M⁻¹ s⁻¹

B2: AB0192 TriNKET (other)
chain: EVQLVESGGGVVQPGGSLRLSCAASGFTFNAFGMHWVRQAPGKCLEWVAFISSGSTSIYYANTVKGRFTISRDNSKNTLYLQMNSLRAEDTAVYYCARDGYPTGGAMDYWGQGTSVTVSSGGGGSGGGGSGGGGSGGGGSDIQMTQSPSSLSASVGDRVTITCKASQDIYNYLSWFQQKPGKAPKPLIYRANILVSGVPSRFSGSGSGQDYTFTISSLQPEDIATYYCLQFDAFPFTFGCGTKLEIKGSDKTHTCPPCPAPELLGGPSVFLFPPKPKDTLMISRTPEVTCVVVDVSHEDPEVKFNWYVDGVEVHNAKTKPREEQYNSTYRVVSVLTVLHQDWLNGKEYKCKVSNKALPAPIEKTISKAKGQPREPRVYTLPPCRDELTKNQVSLTCLVKGFYPSDIAVEWESNGQPENNYKTTPPVLVSDGSFTLYSKLTVDKSRWQQGNVFSCSVMHEALHNHYTQKSLSLSPG
heavy: B1 heavy
light: B1 light
notes: the condition stands under assay; also called AB0192 Lot AB0192-005
- EC50 [5]: 0.91 nM
- Kd [6]: 178 nM
- koff [6]: 0.0199 s⁻¹
- kon [6]: 112000 M⁻¹ s⁻¹

B3: AB0089 TriNKET (bispecific antibody, human IgG1, kappa)
chain: B1 chain with S53V, K56A, K71V, Y98G, D101G, S103T, R207D, I220F
heavy: B1 heavy
light: B1 light
notes: F3' format heterodimer of three chains; human IgG1 Fc with EW-RVT and Y349C/S354C mutations; also called AB0089 Lot AB0089-002; CLEC12A TriNKET AB0089
- Kd [7]: 0.35 nM
- Kd [8]: 884 nM
- Kd [9]: 791 nM
- koff [9]: 0.126 s⁻¹
- kon [9]: 160000 M⁻¹ s⁻¹
- Kd [10]: 342 nM
- koff [10]: 0.0284 s⁻¹
- kon [10]: 83100 M⁻¹ s⁻¹
- EC50 [11]: 4.02 nM

B4: F3'-1602 TriNKET (other)
chain: B1 chain
heavy: B1 heavy
light: B1 light
notes: CLEC12A scFv-Fc, NKG2D A49MI Fab-Fc, human IgG1 Fc; also called AB0237
- Kd [12]: 5.2 nM
- koff [12]: 0.00027 s⁻¹
- kon [12]: 52000 M⁻¹ s⁻¹
- Kd [13]: 0.6 nM
- Kd [14]: 1400 nM
